From the MegaScale stability set (Tsuboyama et al. 2023)

B1: 5KPH (parent)
chain: EEKRQVKQVAKEKLLEQSPNSKVQVRRVQKQGNTIRVELELRTNGKKENYTVEVERQGNTWTVKRITRT

Variants of: B1
Test: folding stability dG (cDNA display proteolysis); higher = more stable
Details: PBS, room temperature

Variant | folding stability dG
EEKRQVKQVAKEKLLEQSPNSKVQVRRVQKQGNTIRVELELRTNGKCENYTVEVERQGNTWTVKRITRT [K47C] | 3.64 kcal/mol
EEKRQVKQVAKEKLLEQSPNSKVQVRRVQKQGNTIRVELELRTNGKGENYTVEVERQGNTWTVKRITRT [K47G] | 3.03 kcal/mol
EEKRQVKQVAKEKLLEQSPNSKVQVRRVQKQGNTIRVELELRTNGKYENYTVEVERQGNTWTVKRITRT [K47Y] | 3.8 kcal/mol
EEKRQVKQVAKEKLLEQSPNSKVQVRRVQKQGNTIRVELELRTNGKIENYTVEVERQGNTWTVKRITRT [K47I] | 4.14 kcal/mol
EEKRQVKQVAKEKLLEQSPNSKVQVRRVQKQGNTIRVELELRTNGKWENYTVEVERQGNTWTVKRITRT [K47W] | 3.75 kcal/mol
EEKRQVKQVAKEKLLEQSPNSKVQVRRVQKQGNTIRVELELRTNGKVENYTVEVERQGNTWTVKRITRT [K47V] | 4.06 kcal/mol
EEKRQVKQVAKEKLLEQSPNSKVQVRRVQKQGNTIRVELELRTNGKAENYTVEVERQGNTWTVKRITRT [K47A] | 3.71 kcal/mol
EEKRQVKQVAKEKLLEQSPNSKVQVRRVQKQGNTIRVELELRTNGKHENYTVEVERQGNTWTVKRITRT [K47H] | 3.94 kcal/mol
EEKRQVKQVAKEKLLEQSPNSKVQVRRVQKQGNTIRVELELRTNGKTENYTVEVERQGNTWTVKRITRT [K47T] | 4.05 kcal/mol
EEKRQVKQVAKEKLLEQSPNSKVQVRRVQKQGNTIRVELELRTNGKEENYTVEVERQGNTWTVKRITRT [K47E] | 3.13 kcal/mol
EEKRQVKQVAKEKLLEQSPNSKVQVRRVQKQGNTIRVELELRTNGKDENYTVEVERQGNTWTVKRITRT [K47D] | 2.91 kcal/mol
EEKRQVKQVAKEKLLEQSPNSKVQVRRVQKQGNTIRVELELRTNGKFENYTVEVERQGNTWTVKRITRT [K47F] | 3.86 kcal/mol
EEKRQVKQVAKEKLLEQSPNSKVQVRRVQKQGNTIRVELELRTNGKQENYTVEVERQGNTWTVKRITRT [K47Q] | 3.64 kcal/mol
EEKRQVKQVAKEKLLEQSPNSKVQVRRVQKQGNTIRVELELRTNGKNENYTVEVERQGNTWTVKRITRT [K47N] | 3.59 kcal/mol
EEKRQVKQVAKEKLLEQSPNSKVQVRRVQKQGNTIRVELELRTNGKPENYTVEVERQGNTWTVKRITRT [K47P] | 3.31 kcal/mol
EEKRQVKQVAKEKLLEQSPNSKVQVRRVQKQGNTIRVELELRTNGKMENYTVEVERQGNTWTVKRITRT [K47M] | 3.77 kcal/mol
EEKRQVKQVAKEKLLEQSPNSKVQVRRVQKQGNTIRVELELRTNGKSENYTVEVERQGNTWTVKRITRT [K47S] | 3.92 kcal/mol
EEKRQVKQVAKEKLLEQSPNSKVQVRRVQKQGNTIRVELELRTNGKLENYTVEVERQGNTWTVKRITRT [K47L] | 4.04 kcal/mol
EEKRQVKQVAKEKLLEQSPNSKVQVRRVQKQGNTIRVELELRTNGKRENYTVEVERQGNTWTVKRITRT [K47R] | 4.02 kcal/mol
EEKRQVKQVAKEKLLEQSPNSKVQVRRVQKQGNTIRVELELRTNTKKENYTVEVERQGNTWTVKRITRT [G45T] | 3.49 kcal/mol
EEKRQVKQVAKEKLLEQSPNSKVQVRRVQKQGNTIRVELELRTNLKKENYTVEVERQGNTWTVKRITRT [G45L] | 3.42 kcal/mol
EEKRQVKQVAKEKLLEQSPNSKVQVRRVQKQGNTIRVELELRTNPKKENYTVEVERQGNTWTVKRITRT [G45P] | 1.96 kcal/mol
EEKRQVKQVAKEKLLEQSPNSKVQVRRVQKQGNTIRVELELRTNNKKENYTVEVERQGNTWTVKRITRT [G45N] | 3.55 kcal/mol
EEKRQVKQVAKEKLLEQSPNSKVQVRRVQKQGNTIRVELELRTNKKKENYTVEVERQGNTWTVKRITRT [G45K] | 3.4 kcal/mol
EEKRQVKQVAKEKLLEQSPNSKVQVRRVQKQGNTIRVELELRTNSKKENYTVEVERQGNTWTVKRITRT [G45S] | 3.75 kcal/mol
EEKRQVKQVAKEKLLEQSPNSKVQVRRVQKQGNTIRVELELRTNMKKENYTVEVERQGNTWTVKRITRT [G45M] | 3.52 kcal/mol

Variant | folding stability dG
EEKRQVKQVAKEKLLEQSPNSKVQVRRVQKQGNTIRVELELRTNDKKENYTVEVERQGNTWTVKRITRT [G45D] | 3.57 kcal/mol
EEKRQVKQVAKEKLLEQSPNSKVQVRRVQKQGNTIRVELELRTNWKKENYTVEVERQGNTWTVKRITRT [G45W] | 3.66 kcal/mol
EEKRQVKQVAKEKLLEQSPNSKVQVRRVQKQGNTIRVELELRTNEKKENYTVEVERQGNTWTVKRITRT [G45E] | 3.49 kcal/mol
EEKRQVKQVAKEKLLEQSPNSKVQVRRVQKQGNTIRVELELRTNFKKENYTVEVERQGNTWTVKRITRT [G45F] | 3.97 kcal/mol
EEKRQVKQVAKEKLLEQSPNSKVQVRRVQKQGNTIRVELELRTNIKKENYTVEVERQGNTWTVKRITRT [G45I] | 2.91 kcal/mol
EEKRQVKQVAKEKLLEQSPNSKVQVRRVQKQGNTIRVELELRTNYKKENYTVEVERQGNTWTVKRITRT [G45Y] | 3.55 kcal/mol
EEKRQVKQVAKEKLLEQSPNSKVQVRRVQKQGNTIRVELELRTNAKKENYTVEVERQGNTWTVKRITRT [G45A] | 3.5 kcal/mol
EEKRQVKQVAKEKLLEQSPNSKVQVRRVQKQGNTIRVELELRTNHKKENYTVEVERQGNTWTVKRITRT [G45H] | 3.44 kcal/mol
EEKRQVKQVAKEKLLEQSPNSKVQVRRVQKQGNTIRVELELRTNRKKENYTVEVERQGNTWTVKRITRT [G45R] | 3.42 kcal/mol
EEKRQVKQVAKEKLLEQSPNSKVQVRRVQKQGNTIRVELELRTNVKKENYTVEVERQGNTWTVKRITRT [G45V] | 2.85 kcal/mol
EEKRQVKQVAKEKLLEQSPNSKVQVRRVQKQGNTIRVELELRTNQKKENYTVEVERQGNTWTVKRITRT [G45Q] | 3.5 kcal/mol
EEKRQVKQVAKEKLLEQSPNSKVQVRRVQKQGNTIRVELELRTNCKKENYTVEVERQGNTWTVKRITRT [G45C] | 3.29 kcal/mol
EEKRQVKQVAKEKLLEQSPNSKVQVRRVQKQGNTIRVELELRTNGRKENYTVEVERQGNTWTVKRITRT [K46R] | 4.01 kcal/mol
EEKRQVKQVAKEKLLEQSPNSKVQVRRVQKQGNTIRVELELRTNGVKENYTVEVERQGNTWTVKRITRT [K46V] | 3.98 kcal/mol
EEKRQVKQVAKEKLLEQSPNSKVQVRRVQKQGNTIRVELELRTNGGKENYTVEVERQGNTWTVKRITRT [K46G] | 3.49 kcal/mol
EEKRQVKQVAKEKLLEQSPNSKVQVRRVQKQGNTIRVELELRTNGYKENYTVEVERQGNTWTVKRITRT [K46Y] | 3.93 kcal/mol
EEKRQVKQVAKEKLLEQSPNSKVQVRRVQKQGNTIRVELELRTNGHKENYTVEVERQGNTWTVKRITRT [K46H] | 3.9 kcal/mol
EEKRQVKQVAKEKLLEQSPNSKVQVRRVQKQGNTIRVELELRTNGTKENYTVEVERQGNTWTVKRITRT [K46T] | 3.85 kcal/mol
EEKRQVKQVAKEKLLEQSPNSKVQVRRVQKQGNTIRVELELRTNGAKENYTVEVERQGNTWTVKRITRT [K46A] | 3.65 kcal/mol
EEKRQVKQVAKEKLLEQSPNSKVQVRRVQKQGNTIRVELELRTNGSKENYTVEVERQGNTWTVKRITRT [K46S] | 3.73 kcal/mol
EEKRQVKQVAKEKLLEQSPNSKVQVRRVQKQGNTIRVELELRTNGFKENYTVEVERQGNTWTVKRITRT [K46F] | 3.81 kcal/mol
EEKRQVKQVAKEKLLEQSPNSKVQVRRVQKQGNTIRVELELRTNGEKENYTVEVERQGNTWTVKRITRT [K46E] | 3.44 kcal/mol
EEKRQVKQVAKEKLLEQSPNSKVQVRRVQKQGNTIRVELELRTNGWKENYTVEVERQGNTWTVKRITRT [K46W] | 3.7 kcal/mol
EEKRQVKQVAKEKLLEQSPNSKVQVRRVQKQGNTIRVELELRTNGNKENYTVEVERQGNTWTVKRITRT [K46N] | 3.81 kcal/mol
EEKRQVKQVAKEKLLEQSPNSKVQVRRVQKQGNTIRVELELRTNGQKENYTVEVERQGNTWTVKRITRT [K46Q] | 3.84 kcal/mol
EEKRQVKQVAKEKLLEQSPNSKVQVRRVQKQGNTIRVELELRTNGDKENYTVEVERQGNTWTVKRITRT [K46D] | 3.43 kcal/mol

Variant | folding stability dG
EEKRQVKQVAKEKLLEQSPNSKVQVRRVQKQGNTIRVELELRTNGPKENYTVEVERQGNTWTVKRITRT [K46P] | 2.63 kcal/mol
EEKRQVKQVAKEKLLEQSPNSKVQVRRVQKQGNTIRVELELRTNGIKENYTVEVERQGNTWTVKRITRT [K46I] | 4.03 kcal/mol
EEKRQVKQVAKEKLLEQSPNSKVQVRRVQKQGNTIRVELELRTNGMKENYTVEVERQGNTWTVKRITRT [K46M] | 3.89 kcal/mol
EEKRQVKQVAKEKLLEQSPNSKVQVRRVQKQGNTIRVELELRTNGCKENYTVEVERQGNTWTVKRITRT [K46C] | 3.6 kcal/mol
EEKRQVKQVAKEKLLEQSPNSKVQVRRVQKQGNTIRVELELRTNGLKENYTVEVERQGNTWTVKRITRT [K46L] | 3.79 kcal/mol
EEKRQVKQVAKEKLLEQSPNSKVQVRRVQKQGNTIRVELELRTRGKKENYTVEVERQGNTWTVKRITRT [N44R] | 3.66 kcal/mol
EEKRQVKQVAKEKLLEQSPNSKVQVRRVQKQGNTIRVELELRTIGKKENYTVEVERQGNTWTVKRITRT [N44I] | 3.46 kcal/mol
EEKRQVKQVAKEKLLEQSPNSKVQVRRVQKQGNTIRVELELRTYGKKENYTVEVERQGNTWTVKRITRT [N44Y] | 3.78 kcal/mol
EEKRQVKQVAKEKLLEQSPNSKVQVRRVQKQGNTIRVELELRTLGKKENYTVEVERQGNTWTVKRITRT [N44L] | 3.83 kcal/mol
EEKRQVKQVAKEKLLEQSPNSKVQVRRVQKQGNTIRVELELRTTGKKENYTVEVERQGNTWTVKRITRT [N44T] | 3.27 kcal/mol
EEKRQVKQVAKEKLLEQSPNSKVQVRRVQKQGNTIRVELELRTWGKKENYTVEVERQGNTWTVKRITRT [N44W] | 3.67 kcal/mol
EEKRQVKQVAKEKLLEQSPNSKVQVRRVQKQGNTIRVELELRTVGKKENYTVEVERQGNTWTVKRITRT [N44V] | 3.47 kcal/mol
EEKRQVKQVAKEKLLEQSPNSKVQVRRVQKQGNTIRVELELRTKGKKENYTVEVERQGNTWTVKRITRT [N44K] | 3.77 kcal/mol
EEKRQVKQVAKEKLLEQSPNSKVQVRRVQKQGNTIRVELELRTSGKKENYTVEVERQGNTWTVKRITRT [N44S] | 3.76 kcal/mol
EEKRQVKQVAKEKLLEQSPNSKVQVRRVQKQGNTIRVELELRTQGKKENYTVEVERQGNTWTVKRITRT [N44Q] | 3.67 kcal/mol
EEKRQVKQVAKEKLLEQSPNSKVQVRRVQKQGNTIRVELELRTMGKKENYTVEVERQGNTWTVKRITRT [N44M] | 3.84 kcal/mol
EEKRQVKQVAKEKLLEQSPNSKVQVRRVQKQGNTIRVELELRTPGKKENYTVEVERQGNTWTVKRITRT [N44P] | 3.4 kcal/mol
EEKRQVKQVAKEKLLEQSPNSKVQVRRVQKQGNTIRVELELRTHGKKENYTVEVERQGNTWTVKRITRT [N44H] | 3.79 kcal/mol
EEKRQVKQVAKEKLLEQSPNSKVQVRRVQKQGNTIRVELELRTGGKKENYTVEVERQGNTWTVKRITRT [N44G] | 3.79 kcal/mol
EEKRQVKQVAKEKLLEQSPNSKVQVRRVQKQGNTIRVELELRTNGKKDNYTVEVERQGNTWTVKRITRT [E48D] | 3.35 kcal/mol
EEKRQVKQVAKEKLLEQSPNSKVQVRRVQKQGNTIRVELELRTNGKKINYTVEVERQGNTWTVKRITRT [E48I] | 3.52 kcal/mol
EEKRQVKQVAKEKLLEQSPNSKVQVRRVQKQGNTIRVELELRTNGKKFNYTVEVERQGNTWTVKRITRT [E48F] | 3.57 kcal/mol
EEKRQVKQVAKEKLLEQSPNSKVQVRRVQKQGNTIRVELELRTNGKKHNYTVEVERQGNTWTVKRITRT [E48H] | 3.34 kcal/mol
EEKRQVKQVAKEKLLEQSPNSKVQVRRVQKQGNTIRVELELRTNGKKANYTVEVERQGNTWTVKRITRT [E48A] | 3.58 kcal/mol
EEKRQVKQVAKEKLLEQSPNSKVQVRRVQKQGNTIRVELELRTNGKKGNYTVEVERQGNTWTVKRITRT [E48G] | 2.67 kcal/mol
EEKRQVKQVAKEKLLEQSPNSKVQVRRVQKQGNTIRVELELRTNGKKCNYTVEVERQGNTWTVKRITRT [E48C] | 3.38 kcal/mol
